Source: patent US20250122288A1 (ARGENX, published 2025)
Blank lines part the entries; values can stand above or below the binder they belong to.

How the values were obtained:
[1] = biological target: T1, neonatal Fc receptor (FcRn) (human, UniProt P55899 24-365; P61769 21-119); assay: FcRn occupancy assay, 'previous studies'
T1 construct: whole, on cells; also called human FcRn

[2] = biological target: T1, neonatal Fc receptor (FcRn); assay: in vitro FcRn occupancy assay
[3] = biological target: T1, neonatal Fc receptor (FcRn); assay: in vitro FcRn occupancy assay; reference implied to be two-armed TA-HEL-ABDEG

B1: mAb37-ABDEG (parental) (antibody)
chain 1: QVQLVQSGAEVMKPGSSVKVSCKASGYTFSWYHLEWVRQAPGHGLEWMGEIDPGTFTTNYNEKFKARVTFTADTSTSTAYMELSSLRSEDTAVYYCARFSHFSGSNHDYFDYWGQGTLVTVSSASTKGPSVFPLAPSSKSTSGGTAALGCLVKDYFPEPVTVSWNSGALTSGVHTFPAVLQSSGLYSLSSVVTVPSSSLGTQTYICNVNHKPSNTKVDKKVEPKSCDKTHTCPPCPAPELLGGPSVFLFPPKPKDTLYITREPEVTCVVVDVSHEDPEVKFNWYVDGVEVHNAKTKPREEQYNSTYRVVSVLTVLHQDWLNGKEYKCKVSNKALPAPIEKTISKAKGQPREPQVYTLPPSRDELTKNQVSLTCLVKGFYPSDIAVEWESNGQPENNYKTTPPVLDSDGSFFLYSKLTVDKSRWQQGNVFSCSVMHEALKFHYTQKSLSLSPG
chain 2: EIVMTQSPATLSVSPGERATLSCRASQSIGTNIHWYQQKPGQAPRLLIYYASESISGIPARFSGSGSGTEFTLTISSLQSEDFAVYYCQQSWSWPTTFGGGTKVEIKRTVAAPSVFIFPPSDEQLKSGTASVVCLLNNFYPREAKVQWKVDNALQSGNSQESVTEQDSKDSTYSLSSTLTLSKADYEKHKVYACEVTHQGLSSPVTKSFNRGEC
IC50 [1]: > 100 nM

B4: efgartigimod (other)
chain: DKTHTCPPCPAPELLGGPSVFLFPPKPKDTLYITREPEVTCVVVDVSHEDPEVKFNWYVDGVEVHNAKTKPREEQYNSTYRVVSVLTVLHQDWLNGKEYKCKVSNKALPAPIEKTISKAKGQPREPQVYTLPPSRDELTKNQVSLTCLVKGFYPSDIAVEWESNGQPENNYKTTPPVLDSDGSFFLYSKLTVDKSRWQQGNVFSCSVMHEALKFHYTQKSLSLSPGK
IC50 [2]: 6 nM

Continued by falling IC50 [2], values first:

IC50 [2]: 14 nM
B2: bivalent (TA) HEL-ABDEG (antibody, human IgG1, kappa)
heavy: QVQLQESGPGLVRPSQTLSLTCTVSGFSLTGYGVNWVRQPPGRGLEWIGMIWGDGNTDYNSALKSRVTMLKDTSKNQFSLRLSSVTAADTAVYYCARERDYRLDYWGQGSLVTVSSASTKGPSVFPLAPSSKSTSGGTAALGCLVKDYFPEPVTVSWNSGALTSGVHTFPAVLQSSGLYSLSSVVTVPSSSLGTQTYICNVNHKPSNTKVDKKVEPKSCDKTHTCPPCPAPELLGGPSVFLFPPKPKDTLYITREPEVTCVVVDVSHEDPEVKFNWYVDGVEVHNAKTKPREEQYNSTYRVVSVLTVLHQDWLNGKEYKCKVSNKALPAPIEKTISKAKGQPREPQVYTLPPSRDELTKNQVSLTCLVKGFYPSDIAVEWESNGQPENNYKTTPPVLDSDGSFFLYSKLTVDKSRWQQGNVFSCSVMHEALKFHYTQKSLSLSPGK
light: DIQMTQSPSSLSASVGDRVTITCRASGNIHNYLAWYQQKPGKAPKLLIYYTTTLADGVPSRFSGSGSGTDYTFTISSLQPEDIATYYCQHFWSTPRTFGQGTKVEIKRTVAAPSVFIFPPSDEQLKSGTASVVCLLNNFYPREAKVQWKVDNALQSGNSQESVTEQDSKDSTYSLSSTLTLSKADYEKHKVYACEVTHQGLSSPVTKSFNRGEC
notes: Two-armed anti-hen egg lysozyme antibody with an Fc-ABDEG region; Copies of 2 follow from 'bivalent (TA)'

IC50 [2]: 7 nM | fold improvement in FcRn occupancy [3]: 2 fold
B3: one-armed (OA) HEL-ABDEG (antibody, human IgG1, kappa)
heavy: QVQLQESGPGLVRPSQTLSLTCTVSGFSLTGYGVNWVRQPPGRGLEWIGMIWGDGNTDYNSALKSRVTMLKDTSKNQFSLRLSSVTAADTAVYYCARERDYRLDYWGQGSLVTVSSASTKGPSVFPLAPSSKSTSGGTAALGCLVKDYFPEPVTVSWNSGALTSGVHTFPAVLQSSGLYSLSSVVTVPSSSLGTQTYICNVNHKPSNTKVDKKVEPKSCDKTHTCPPCPAPELLGGPSVFLFPPKPKDTLYITREPEVTCVVVDVSHEDPEVKFNWYVDGVEVHNAKTKPREEQYNSTYRVVSVLTVLHQDWLNGKEYKCKVSNKALPAPIEKTISKAKGQPREPQVYTLPPSRDELTKNQVSLWCLVKGFYPSDIAVEWESNGQPENNYKTTPPVLDSDGSFFLYSKLTVDKSRWQQGNVFSCSVMHEALKFHYTQKSLSLSPG
chain: DKTHTCPPCPAPELLGGPSVFLFPPKPKDTLYITREPEVTCVVVDVSHEDPEVKFNWYVDGVEVHNAKTKPREEQYNSTYRVVSVLTVLHQDWLNGKEYKCKVSNKALPAPIEKTISKAKGQPREPQVYTLPPSRDELTKNQVSLSCAVKGFYPSDIAVEWESNGQPENNYKTTPPVLDSDGSFFLVSKLTVDKSRWQQGNVFSCSVMHEALKFHYTQKSLSLSPG
light: B2 light
notes: One anti-HEL Fab joined by a natural IgG1 hinge to the N-terminus of Fc-ABDEG; The Fc is a knob-into-hole heterodimer
